Results from paper PMC4356968, “Characterization of the MCM homohexamer from the thermoacidophilic euryarchaeon Picrophilus torridus” (Scientific Reports, 2015).
Each block holds one molecule with its values, some of them ahead of it.

Assays:
PtMCM = target: T1, PtMCM (Picrophilus oshimae, UniProt A0A8G2FX57, K337A); assay: ATP hydrolysis, gamma-32P ATP tracer, TLC; type: biochemical; settings: pH 6.0, 55 °C, 10 or 100 uM ATP, no DNA, 800 nM protein, 60 min; Walker A mutant
T1 construct: gene SAMN02745355_1050; full length, N-terminal 6xHis and C-terminal Strep-tag kept; E. coli BL21 Codon Plus; tagged monomer 81 kDa (untagged ~76 kDa); homohexamer

[1] = target: His-PtMCM-Strep (Picrophilus torridus MCM, recombinant) (Picrophilus torridus)
[2] = target: His-PtMCM-Strep (Picrophilus torridus MCM, recombinant) (Picrophilus torridus); remark: listed apart in the source
[3] = target: His-PtMCM-Strep (Picrophilus torridus MCM, recombinant) (Picrophilus torridus); remark: listed apart in the source
[4] = target: His-PtGINS (Picrophilus torridus GINS, recombinant) (Picrophilus torridus); assay: SEC; Superdex 200 10/300 GL calibrated with protein standards, 50 mM potassium phosphate pH 7.4, 150 mM NaCl; molecular weight from retention volume; PtMCM 400 ug, profile unchanged over 1.5 to 5 uM protein
[5] = target: His-PtMCM-Strep (Picrophilus torridus MCM, recombinant) (Picrophilus torridus); assay: as above

T1 sequence (A0A8G2FX57 entry or part of it K337A): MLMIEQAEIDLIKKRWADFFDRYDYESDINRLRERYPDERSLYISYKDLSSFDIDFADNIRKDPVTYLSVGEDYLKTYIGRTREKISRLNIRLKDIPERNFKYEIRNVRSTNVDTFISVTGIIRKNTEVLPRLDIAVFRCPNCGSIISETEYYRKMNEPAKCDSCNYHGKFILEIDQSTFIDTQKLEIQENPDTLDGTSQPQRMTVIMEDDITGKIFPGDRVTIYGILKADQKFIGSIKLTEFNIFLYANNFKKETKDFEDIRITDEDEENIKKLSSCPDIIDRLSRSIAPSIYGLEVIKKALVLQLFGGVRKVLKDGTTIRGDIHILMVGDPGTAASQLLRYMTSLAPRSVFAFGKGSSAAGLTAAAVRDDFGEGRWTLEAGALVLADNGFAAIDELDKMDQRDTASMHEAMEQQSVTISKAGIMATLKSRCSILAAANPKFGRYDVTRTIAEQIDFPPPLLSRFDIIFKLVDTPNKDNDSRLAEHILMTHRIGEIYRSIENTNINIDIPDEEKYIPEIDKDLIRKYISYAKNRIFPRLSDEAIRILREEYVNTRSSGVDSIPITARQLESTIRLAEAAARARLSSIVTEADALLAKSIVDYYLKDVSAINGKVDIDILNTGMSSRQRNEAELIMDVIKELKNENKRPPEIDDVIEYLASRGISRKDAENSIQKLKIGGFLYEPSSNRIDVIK

Molecule: Nc1ncnc2c1ncn2[C@@H]1O[C@H](COP(=O)(O)OP(=O)(O)OP(=O)(O)O)[C@@H](O)[C@H]1O [ATP]
ATP hydrolysis, gamma-32P ATP tracer, TLC (PtMCM): ATPase activity was drastically diminished in case of the mutant PtMCM-K337A

MCM ATP hydrolysis with 100 uM ATP, 500 nM PtMCM and 3000 nM PtGINS, pH 3-7, with or without DNA, 60 min; fold increase with GINS at lower pH (no effect at pH 5-7) [1]: 2 fold
ATP hydrolysed during the helicase reaction at pH 4, 5 mM ATP, 500 nM PtMCM and 3000 nM PtGINS, 60 min; fold stimulation by GINS [2]: > 50 fold
ATP hydrolysed during the helicase reaction at pH 6, 3-5 mM ATP, 500 nM PtMCM and 3000 nM PtGINS, 60 min; fold stimulation by GINS [3]: 2 fold
stoichiometry N [4]: 4
Molecule: His-PtGINS (Picrophilus torridus GINS, recombinant) (natural protein)

stoichiometry N [5]: 6
Molecule: His-PtMCM-Strep (Picrophilus torridus MCM, recombinant) (enzyme)
